Test results: patent US20260193293A1, “PEPTIDES CAPABLE OF INHIBITING PROTEIN-PROTEIN INTERACTIONS AT GABAB1A SUBUNIT AND USES THEREOF” (UNIVERSITY OF COPENHAGEN, priority 2022, published 2026)
One block for each binder: values may come before it. Non-standard residues stand in square brackets, D forms with d. Sar = CNCC(=O)O

Molecular target: Sushi domains (SD1/2) protein of GABAB1a (GB1a)
Assay: FP competition vs TAMRA AJAP-1probe

Chain of Sushi domains (SD1/2) protein of GABAB1a (GB1a) (Q9Z0U4 29-158): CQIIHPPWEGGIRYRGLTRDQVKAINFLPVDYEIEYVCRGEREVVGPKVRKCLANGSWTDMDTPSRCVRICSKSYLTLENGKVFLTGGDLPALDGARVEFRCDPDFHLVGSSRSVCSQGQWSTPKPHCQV

Ki: 190 nM
B1: … (peptide)
peptide: Ac-ETEFIAWYPADTD-NH2

Ki: 16 nM
B2: peptide 27 (peptide)
peptide: Ac-EDDSWIWWGPTGDED-NH2

Ki: 123 nM
B6: 17-R8 (peptide)
peptide: Ac-EDDDWIDWGPTSDDDRRRRRRRR-NH2

Ki: 20.6 nM
B7: 4R-16 (peptide)
peptide: Ac-RRRREDDDWIDWYDSDDD-NH2

Ki: 222 nM
B12: … (peptide)
peptide: Ac-PWAIVWGPTGDED-NH2

Ki: 18 nM
B13: peptide 28 (peptide)
peptide: Ac-EDDSWIWWYGADTD-NH2

Ki: 65.3 nM
B14: 16-R8 (peptide)
peptide: Ac-EDDDWIDWYDSDDDRRRRRRRR-NH2

Ki: 32 nM
B17: peptide 38 (peptide)
peptide: Ac-ETEFIAWG[Sar]TGDED-NH2
SMILES: CC[C@H](C)[C@H](NC(=O)[C@H](Cc1ccccc1)NC(=O)[C@H](CCC(=O)O)NC(=O)[C@@H](NC(=O)[C@H](CCC(=O)O)NC(C)=O)[C@@H](C)O)C(=O)N[C@@H](C)C(=O)N[C@@H](Cc1c[nH]c2ccccc12)C(=O)NCC(=O)N(C)CC(=O)N[C@H](C(=O)NCC(=O)N[C@@H](CC(=O)O)C(=O)N[C@@H](CCC(=O)O)C(=O)N[C@@H](CC(=O)O)C(N)=O)[C@@H](C)O

Ki: 62 nM
B21: hybrid peptide X (peptide)
peptide: Ac-EDDSDVWWGPTGDED-NH2

Ki: 147 nM
B22: 17-FL-R8 (peptide)
peptide: Ac-EDDDWIDWGPTSDDDGGGGSRRRRRRRR-NH2

Ki: 379 nM
B23: … (peptide)
peptide: Ac-PWAIVWGPTVDRED-NH2

Ki: 182 nM
B24: … (peptide)
peptide: Ac-ETEFIAWYGPADTD-NH2

Ki: 65 nM
B25: … (peptide)
peptide: Ac-RRRRRRREDDDWIDWGPTSDDD-NH2

Ki: 58.1 nM
B28: R8-17 (peptide)
peptide: Ac-RRRRRRRREDDDWIDWGPTSDDD-NH2

Ki: 195 nM
B32: … (peptide)
peptide: Ac-ETEFIAWYGPTGDED-NH2

Ki: 3.2 nM
B33: peptide 16 (peptide)
peptide: Ac-EDDDWIDWYDSDDD-NH2

Ki: 43.4 nM
B36: … (peptide)
peptide: Ac-RRRRRREDDDWIDWGPTSDDD-NH2

Ki: 345 nM
B38: hybrid peptide Y (peptide)
peptide: Ac-ETEFIAWGGADTD-NH2

Ki: 327 nM
B40: … (peptide)
peptide: Ac-PWAIVWGPTVSDED-NH2

Ki: 773 nM
B44: …* (peptide)
peptide: Ac-AIVWGPTVSRED-NH2
modifications: also: asterisk not explained

Second part, the binder before the results:

B3: peptide 30 (peptide)
peptide: Ac-EDDSWIDWYGADTD-NH2
Ki: 11 nM

B4: peptide 37 (peptide)
peptide: Ac-ETEFIAWYGADTD-NH2
Ki: 95 nM

B5: …(N-Me-G)TGDED (peptide)
peptide: Ac-EDDSDVWWY[Sar]TGDED-NH2
SMILES: CC(=O)N[C@@H](CCC(=O)O)C(=O)N[C@@H](CC(=O)O)C(=O)N[C@@H](CC(=O)O)C(=O)N[C@@H](CO)C(=O)N[C@@H](CC(=O)O)C(=O)N[C@H](C(=O)N[C@@H](Cc1c[nH]c2ccccc12)C(=O)N[C@@H](Cc1c[nH]c2ccccc12)C(=O)N[C@@H](Cc1ccc(O)cc1)C(=O)N(C)CC(=O)N[C@H](C(=O)NCC(=O)N[C@@H](CC(=O)O)C(=O)N[C@@H](CCC(=O)O)C(=O)N[C@@H](CC(=O)O)C(N)=O)[C@@H](C)O)C(C)C
Ki: 142 nM

B8: …(N-Me-G)ADTD (peptide)
peptide: Ac-EDDSDVWWY[Sar]ADTD-NH2
SMILES: CC(=O)N[C@@H](CCC(=O)O)C(=O)N[C@@H](CC(=O)O)C(=O)N[C@@H](CC(=O)O)C(=O)N[C@@H](CO)C(=O)N[C@@H](CC(=O)O)C(=O)N[C@H](C(=O)N[C@@H](Cc1c[nH]c2ccccc12)C(=O)N[C@@H](Cc1c[nH]c2ccccc12)C(=O)N[C@@H](Cc1ccc(O)cc1)C(=O)N(C)CC(=O)N[C@@H](C)C(=O)N[C@@H](CC(=O)O)C(=O)N[C@H](C(=O)N[C@@H](CC(=O)O)C(N)=O)[C@@H](C)O)C(C)C
Ki: 201 nM

B9: peptide 19 (peptide)
peptide: Ac-EDDYIDWGPTSDDD-NH2
Ki: 3.8 nM

B10: … (peptide)
peptide: Ac-ETEFIAWGPTVSRED-NH2
Ki: 148 nM

B11: … (peptide)
peptide: Ac-RRRRREDDDWIDWYDSDDD-NH2
Ki: 39.5 nM

B15: peptide 17 (peptide)
peptide: Ac-EDDDWIDWGPTSDDD-NH2
Ki: 4 nM

B16: R8-RL-17 (peptide)
peptide: Ac-RRRRRRRREAAAKEDDDWIDWGPTSDDD-NH2
Ki: 105 nM

B18: … (peptide)
peptide: Ac-AIVWGPTVSRED-NH2
Ki: 683 nM

B19: R8-FL-16 (peptide)
peptide: Ac-RRRRRRRRGGGGSEDDDWIDWYDSDDD-NH2
Ki: 280 nM

B20: … (peptide)
peptide: Ac-RRRRRREDDDWIDWYDSDDD-NH2
Ki: 70.9 nM

B26: …(N-Me-G)ADTD (peptide)
peptide: Ac-EDDSWVWWG[Sar]ADTD-NH2
SMILES: CC(=O)N[C@@H](CCC(=O)O)C(=O)N[C@@H](CC(=O)O)C(=O)N[C@@H](CC(=O)O)C(=O)N[C@@H](CO)C(=O)N[C@@H](Cc1c[nH]c2ccccc12)C(=O)N[C@H](C(=O)N[C@@H](Cc1c[nH]c2ccccc12)C(=O)N[C@@H](Cc1c[nH]c2ccccc12)C(=O)NCC(=O)N(C)CC(=O)N[C@@H](C)C(=O)N[C@@H](CC(=O)O)C(=O)N[C@H](C(=O)N[C@@H](CC(=O)O)C(N)=O)[C@@H](C)O)C(C)C
Ki: 36 nM

B27: R8-RL-16 (peptide)
peptide: Ac-RRRRRRRREAAAKEDDDWIDWYDSDDD-NH2
Ki: 314 nM

B29: 16-RL-R8 (peptide)
peptide: Ac-EDDDWIDWYDSDDDEAAAKRRRRRRRR-NH2
Ki: 99.5 nM

B30: … (peptide)
peptide: Ac-FIVWGPTVSRED-NH2
Ki: 367 nM

B31: 17-RL-R8 (peptide)
peptide: Ac-EDDDWIDWGPTSDDDEAAAKRRRRRRRR-NH2
Ki: 139 nM

B34: peptide 18 (peptide)
peptide: Ac-EDDYIDWYDSDDD-NH2
Ki: 4.6 nM

B35: 16-FL-R8 (peptide)
peptide: Ac-EDDDWIDWYDSDDDGGGGSRRRRRRRR-NH2
Ki: 118 nM

B37: … (peptide)
peptide: Ac-RRRRRRREDDDWIDWYDSDDD-NH2
Ki: 89.1 nM

B39: …* (peptide)
peptide: Ac-FIVWGPTVSRED-NH2
modifications: not fully specified; printed as FIVWGPTVSRED*
Ki: 503 nM

B41: R3-16 (peptide)
peptide: Ac-RRREDDDWIDWYDSDDD-NH2
Ki: 6.4 nM

B42: …(N-Me-G)TGDED (peptide)
peptide: Ac-EDDSDVWWYG[Sar]TGDED-NH2
SMILES: CC(=O)N[C@@H](CCC(=O)O)C(=O)N[C@@H](CC(=O)O)C(=O)N[C@@H](CC(=O)O)C(=O)N[C@@H](CO)C(=O)N[C@@H](CC(=O)O)C(=O)N[C@H](C(=O)N[C@@H](Cc1c[nH]c2ccccc12)C(=O)N[C@@H](Cc1c[nH]c2ccccc12)C(=O)N[C@@H](Cc1ccc(O)cc1)C(=O)NCC(=O)N(C)CC(=O)N[C@H](C(=O)NCC(=O)N[C@@H](CC(=O)O)C(=O)N[C@@H](CCC(=O)O)C(=O)N[C@@H](CC(=O)O)C(N)=O)[C@@H](C)O)C(C)C
Ki: 138 nM

B43: R8-16 (peptide)
peptide: Ac-RRRRRRRREDDDWIDWYDSDDD-NH2
Ki: 107 nM

B45: … (peptide)
peptide: Ac-PWAIVWGPTDSRED-NH2
Ki: 417 nM

B46: peptide 29 (peptide)
peptide: Ac-EDDSWIDWGPTGDED-NH2
Ki: 5.6 nM

B47: R8-FL-17 (peptide)
peptide: Ac-RRRRRRRRGGGGSEDDDWIDWGPTSDDD-NH2
Ki: 140 nM

B48: …(N-Me-G)ADTD (peptide)
peptide: Ac-EDDSDVWWYG[Sar]ADTD-NH2
SMILES: CC(=O)N[C@@H](CCC(=O)O)C(=O)N[C@@H](CC(=O)O)C(=O)N[C@@H](CC(=O)O)C(=O)N[C@@H](CO)C(=O)N[C@@H](CC(=O)O)C(=O)N[C@H](C(=O)N[C@@H](Cc1c[nH]c2ccccc12)C(=O)N[C@@H](Cc1c[nH]c2ccccc12)C(=O)N[C@@H](Cc1ccc(O)cc1)C(=O)NCC(=O)N(C)CC(=O)N[C@@H](C)C(=O)N[C@@H](CC(=O)O)C(=O)N[C@H](C(=O)N[C@@H](CC(=O)O)C(N)=O)[C@@H](C)O)C(C)C
Ki: 164 nM
